# Source: the DeepSol protein solubility set
# Assay: soluble on expression in E. coli; label from the status in PepcDB or PDB records
row,Sequence,soluble on expression in E. coli
1,MEVLKLQLRQWQAEKLGEAINALKHGKTLLLNAKPGLGKTVFVEVLGMQLKKKVLIFTRTHSQLDSIYKNAKLLGLKTGFLIGKSASCIYAQGDEEPDEINCSKCRLKDKIKTIEDKEPSKLIEEFKDAVDYCPYYSLRANLKDKDVIAMTYPYLFQKPIRNSVFCNKDDCLKLEDYLIVIDEAHNLLEADKWFTRKISRKMLERALKEIEIVERLNRIDAKKVKDYINLLIDYMSKLIKDGRCHELSLMPLPDRETNGELIVVTRAYLNIDEGPVKKSSLKSLLKFVEMKGDLYNCNGSLVKVPSDVNQLIEDALNVKTFKVLMSGTLPESLTLTNSYKIVVNESYGRGEYYYCPNVTSELRKRNSNIPIYSILLKRIYENSSKSVLVFFPSYEMLESVRIHLSGIPVIEENKKTRHEEVLELMKTGKYLVMLVMRAKESEGVEFREKENLFESLVLAGLPYPNVSDDMVRKRIERLSKLTGKDEDSIIHDLTAIVIKQTIGRAFRDPNDYVKIYLCDSRYREYFADLGISEKEIKLFA,soluble
2,MEVRGMDTIGHHYIVEAAGCDPNVIGDANKIREIFLEAAKRGNMEVKASYFFKFSPMGVSGVVIVAESHISVHTWPEKGYAALDVYTCGENADPEKAVDYILEQFKAQYAHVSEIKRGIEEEDRTFTHTILTWEERLDRRNGKP,soluble
3,MEVTVMPAAAPVQKQQGLNQIVINKVQKMIEGKQQGVMATITRLLEEGKIAQDFIAPIGVNLRNEDRHPVITFQAEEQVQMNMPEGNFNLHGNAISQISEKMGIPAKYLRELSAGDAWQKQLCATILNEHSGWTGRTRVLIRAVGTEIRGVLSDSYRRLNSVDILTAFIREAANNGAVVSDAYMNDTKVWCETILPTPVEIPTRKNGTVIIFAGARFSTSDFGNGSVDMRSFLLNGACLNGMVRESVMRQIHLGGRLPDTLALSQRTYELDTKTTVSAVKDLTKGLYSKNTIMQKAIEIQGASEIDVDFDKELKSLVQRGALLKNEGREVEKLLMNNNPDDGITGGATLWKLAQGITAFAREQEPERSRELHEISGQLMNRVKNN,not soluble
4,MEVVKMPFGVPGWKWKVGKFGYTVENEPNYEEIKAKAKEVLSRTTKGIAWRGHCGSLHIPLVFEGQIIGELWEDADPKEVEIGAYWFGKWGIKVQLVKDGRVIGFIWLA,soluble
5,MEWAMNEHHQPFEEIRHYGTEGQEFWSARELAPLLDYRDWRNFQKVLARATQACEASNQAASDHFVETTKMVVLGSGAQRELEDVHLSRYACYLVVQNGDPAKPVIAAGQTYFAIQTRRQELADDEAFKQLREDEKRLFLRNELKEHNKQLVEAAQQAAVATATDFAIFQNHGYQGLYGGLDQKAIHQLKGLKKSQKILDHMGSTELAANLFRATQTEEKLKRDGVNSKQQANTTHFDVGSKVRQTIQELGGTMPEELPTPQVSIKQLENSVKITEKK,not soluble
6,MEWHFSLKEPHVLLFLPFEKYALPYPDPSQSWLSFGLTEIPVPEWTKNLEIITPWRPDFLKFANAQFRCSPEINQTCTHDGALLQLSKYRGFNQNCFLDLLERVKPGGWIIIGGNKTSGADSMMKWVKKIVPITNKFSKNHGLVFWIQVPQQIEKQNTAQLRSPPLTFENKFQTTSGMFSHGRIDPGSAVLASHMCKTISGKTADFGAGWGFLSHAALERSEKLTALDLYEADYNALKAAKQHLKHITTSLPIHFYWHDLVHEPITNLYDTIISNPPFHTQQTTDVSLGQHFIINAAKYLKPGGNLLLVANRHLPYETLLKRLFRTVLIYEKAHGFKVIEAYR,not soluble
7,MEYAADGDTVFLESIENMEVTRLDSAIIRNGTFSFKGRQDSTVARYLSCMTATDVFSIPFFLENGHIEVKMKSGNESVTGTPTNDIYQEIRSKMAEIMNKMNEIYSDSTLTEELAEEKMDQMEREYTIAQKEAVKKNIANPVGVFLFKEQYFENSLAENQALFRQIPPKYLNDPVLMGMQKQMESQEKTDMNTPFT,not soluble
8,MEYKLHNGSGGLCCKGCSRQDKKLNTYDWLADIPGNAEECDMVEVQFKNTRKGYYRNSNKIKLEKGDIVAVEAAPGHDIGVVTLTGRLVPLQMKKANFKTDVEIKRIYRKAKPVDMEKFNEAKAKEHATMIRARQIALNLNLDMKIGDVEYQGDGNKAIFYYIADERVDFRQLIKVLAEAFRVRIEMKQIGARQEAGRIGGIGPCGRELCCATWMTSFVSVSTSAARFQDISLNPQKLAGQCAKLKCCLNYEVDCYVEAQKRLPSKEIELETKDGTFYFFKADILSNHVSYSTDKNFPANLVTISGKRAFEVIAMNKKGMKPDSLLEAEVKQESKKPIDLLEQESLTRFDRNRNNKDGNNGNRNKKKRKGNNDNRPQAQAESGNRPQQPQRGENENRPQPSENGNRGERGDRENRPRNNNNNNRNRGQNQGRNNENRRPERGQNQERPQNPNRPQNQERSQNQERPVNQERNQERNQERPQNRERQPKQERPQNQERPQEQGRQPNQERIPRPERNSNQEKPQNNEKPAQELEHHHHHH,soluble
9,MEYKPMPYPIIDSHCHLDFPKFNPDREEAIQRARKAGVVGMVNSGISLKGNRISLELAEKNEDIHAALGLSPDIGREGSDKDINAILAQIEANAGKAVAIGEAGLDFQDCKTDEERRRQTASFKKVIELAKNLEKPLVVHARMAEAEVLELARDVDTVIYHCYSGSVETMKEIVDAGYYISLATLVCFSEHHQTLAAEVPPENLLLETDSPFLSPRRGRNEPAFIVDSIPVVAEYKEMEPAEIAKFATENARRVFKILEHHHHHH,not soluble
10,MEYNPFHNGHLYHLTSARELVKPDYTIAVMSGNFCQRGEPAVIDKFARAEIALRMGVDVVLELPVVFATQDAGGFAFGAVCVLDATGVVTDVVFGSESNDIEFLQRVARILYEQPDEYQKFLHEELKKGYSFPNARKYALMRYFSMKGWNEEEVLKLEKSNDILGVEYIHSALKIGSNIRFHTIKRVGAEEKDTSFRGRFSSATAIRNLMREKRWEEVRDSLPEDSFEILMREINEGRGPVFLENMGDFLLSFFRLKNMDFFEKIHGFSEGLEKRFHVCARQTGSYRDFLECVKAKRFTFSRIRRLALFSVFEVNKEFVEKSNTKGPQYIRILGFTEKGREILSLMRKKAKLPIVTNMSLYRKVLEKTDLPVDKQLFLEQIDLDVKATNFYSMFFPSVEQRCGERDFSIHPIFLRTEM,not soluble
11,MEYSNFFDDLKSNIIGQYEECKAYRILCESQGYNPSEHLRSEKDITNIPFLATTLFKKSANLFLSLLRVEPDKLDKWTLSSSTSGDPSMVGRRNSDLMQIRKFVLMDDKFYDSASEYNCVFYPEPKVMREYKSVRIMDKPTESYIGNLLGIFDFSENTTFLLKSCGEGFSVDMNSFEEFLKFNNERNNHLSLRGSTLLLYNAVLELKKQGKGPYNLGSRAIVHTGGGGWDGKKGNISIGTKIERYQFVEEISEFLGIPQKNFRDTYSFTENTFPMDGHYSEKLRSYLFHVPTWGRVIIRDVKTLEPLNKPGDRGLVQVLNAYGTSSFAGASILVDDIAEIVANDSCPECKHEGMTFKIVGRVKGSEAKGCGATLDVRGKQKLEHHHHHH,soluble
12,MFAHQNASFPPRPEGRGGKEAVFRLTVFCIITFSSLICEAMKRAYKYRFYPTTEQAELLAQTFGCVRFVYNSILRWRTDAYYERKEKIGYLQANARLTALKKEPEFAWLNDVSCVPLQQSLRHQQTAFANFFAGRAAYPAFKSKRHKQAAEFTASAFKYRDGKLYMAKNKIPLDVRWSRPLPSVPSTVTISKDAAGRYFVSCLCEFEPASLPITSSMVGIDVGLKDLFVTDTGFRSGNPRHTAKYAARLALLQRRLSKKAKGSKNRAKAHLKVARLHAKIADCRLDALHKATRKLINDNQVVCVESLKVRNMIRNPSLSKAIADASWGELVRQLRYKGEWAGRSVVAIDQFFPSSKRCSCCGFIMKKMPLDVRKWQCPECGTDHDRDVNAARNIKAAGLAVLAHGEPVNPESLKAALEHHHHHH,not soluble
13,MFAPSTVYTYGHHGSGTDEDDGQQVMPGMDNGDGQCMVCGDRSAGKHYGVMACYGCKGFFRRTIRSQQTYTCRFTQKCAIDKDQRNACRYCRFQRCLTVGMEPEAIRPDRDVIGKQKNPRKKKMKSDTNSGSIDASLPSPNGCDSPVSNNEDVILSFLLDVEDQATCGNNHITMPIGISMMMKNDPDFDVSTLFHSQYVRNQESFPITYAVGRTASVEQLIAALRRYVLSAVHWIDALFNLAHLTEIHDKTTLLKSVIGPFTIFNIAARTAQISDGDLICLCNKSTINRQPARHLLDTNLVGNNFVGRVIDDLVFPTKKLALTNPEITILSALIILDPDARGLSQETSQALLGIRDRVQNALFNLIRDNSNNMTSVTSRFGNLLLLFPPLAKLSSLIGENVQLAKMFGIPIDSLLVELYVDADSPELISQGSHARERSDVSTQTASLEGASASMTPDVTSSEFVKMEQNESPSSSEEPMCIGAPATSSANAVATNLAADLLGLLPNFDATGLDLASAAAAAATSVNYSHFYGFGNLGGSLDDSSSSGTGSVGSFAPHSAPPISNNVNPFAVHGFFDNSAPNTGVVHNQPFRFV,not soluble
14,MFCSSNIPIRLRDKKENNSIIVLPGGSEKSAAGQWRPHLPT,not soluble
15,MFDPKMLSVEFRNGITDEKPIEGRKYTLTHNDDTGELFLTVALAYAYDKINSSARDEVFGVWKRGNNRFILKIYLYVDGNQGREEAIKRDRIFRKELPLALAAIAYGDRKFLDDNDDLLNSNIIVRFISAYEELNKIENYGTLKDYLEHHHHHH,soluble
16,MFEELKTFVAVVEYKNFTKAGEYLNLSQPSVSKHIKNLENYFKVVLINRSIKQKTIFITESGQILYKRAKEILNLLNITYHDVSQVSDAITGHLKIGASLTIGEYILPNFLALFSKKYPDIDVEVFIKNTSIVSSHVKDYILDIGLIEGTCSSPSFIQEYFFEDKMVLALPYKSHLLKDFSFDKLQNQKWIVREDGSGTRDYLDMFLSVKEIIPKSMMVFGSNYAVKESVRNNLGITIVSNLVTSLPVLNNELSVIELGSSYNRHFSYIFPKDITLSKAATIFIEELKIFSNLNSI,not soluble
17,MFEIRDVDLAGRIGRIYTQHGVVETPAFFPVIDVYRQEVSVDEVRAAGFGQVITNAYLLWKRFGWEAAEKGVHRILGFPGVVMTDSGAYQILEYGGVELSQGEVVEYQKRLGSDIAVILDIPTGDVGRREAEESVRETIRRALEARVMIEGDERIWVYPVQGGRYFDLVEESARVGGRLGFYRMYGIGSPTVFLERYMYHVVVEAVYRAKKHLPWGRPVHLFGAGHPLIFPYAVALGVDTFDSASYILYAREGRYITEYGVYRIEDLDYLPCSCPVCSRYTPQELREMDRVERTRLLALHNLYVISASMRRVKQAIREGRLWELLEETSRKHPSTARVMARMRRYIDALEKGSARGRGVVRGVRAYGLESLSNPRLSRFSSDAARLVEAMAEKWGGGKAVLKPLDPKPEPGQCESMVGGGEWILFYQPFLGVFPVEACGAYPSLQIDYPQEGLPAEVIGDLASKIASTVSILRGRGFTVRLEYCGKVEWQARAVEALKTAAAGDLPTVEACG,soluble
18,MFFNKSLQQENQRLKQELYSLQQIQQSLDEEMLRLTLDAKGNVTSANQKFLQQLSLSDKDILAKHISDLVPSNVRNTDHFYRMKQSVQAKAFWNGAFQITKGDGEEAWLRVVIQPVRNASDQVESFFVFASELTRTITTSREYEDMLNALSRSMAVIEFTLDGTVLKANDNFLSTMGYKHEQIVGKHHRIFCLPEEANSSAYHDFWKRLASGQFVTDRFKRVDQHGSVVWLEASYNPIHNDRGELYKVVKFATNITQQVLQ,not soluble
